Laboratory results reported in publication PMC8592984, “Tau activates microglia via the PQBP1-cGAS-STING pathway to promote brain inflammation” (Nature Communications, 2021).

B1: human PQBP1(1–94) including WWD (domain or fragment, UniProt O60828 1-94, looked up)
chain: MPLPVALQTRLAKRGILKHLEPEPEEEIIAEDYDDDPVDYEATRLEGLPPSWYKVFDPSCGLPYYWNADTDLVSWLSPHDPNSVVTKSAKKLRS
notes: human PQBP1, residues 1-94, including the WW domain (WWD); Used in SPR and in NMR; also called WWD of PQBP1; PQBP1-WWD

How the values were obtained:
Conditions in all cases: both partners purified
[1] = molecular target: T1, human Tau 410 full-length protein (3R tau), SPR construct (human, UniProt P10636-5 1-410); assay: SPR; Tau proteins immobilised on CM5 sensor chips at 1200 RU; PQBP1 constructs loaded at multiple doses for 120 s; equilibrium response; BIAcore J, 25 °C; 10 mM Tris-HCl pH 8.5, 150 mM NaCl, 3 mM EDTA, 0.005% Tween-20
T1 construct: human tau, splice form Tau 410 (a representative 3R tau), 410 residues; numbers count on: Tau 410; source: E. coli Rosetta(DE3)pLysS, purified (Ni-NTA agarose); not shown: His-tag, N-terminal, kept
T1 sequence (P10636 other isoform, or with tags, fused parts or gaps): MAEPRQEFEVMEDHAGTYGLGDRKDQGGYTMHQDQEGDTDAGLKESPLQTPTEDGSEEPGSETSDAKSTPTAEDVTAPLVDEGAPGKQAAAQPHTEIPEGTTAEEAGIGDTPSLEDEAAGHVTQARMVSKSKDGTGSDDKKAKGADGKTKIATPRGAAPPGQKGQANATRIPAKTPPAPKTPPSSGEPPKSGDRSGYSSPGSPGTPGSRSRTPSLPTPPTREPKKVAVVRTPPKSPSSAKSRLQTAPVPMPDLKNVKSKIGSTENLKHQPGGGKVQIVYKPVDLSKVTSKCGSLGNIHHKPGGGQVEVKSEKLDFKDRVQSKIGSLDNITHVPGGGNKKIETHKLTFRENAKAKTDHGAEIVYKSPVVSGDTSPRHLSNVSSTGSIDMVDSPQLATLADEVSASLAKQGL

[2] = molecular target: T2, human Tau 441 full-length protein (4R tau), SPR construct (human, UniProt P10636-8 1-441); assay: as above
T2 construct: source: E. coli Rosetta(DE3)pLysS, purified (Ni-NTA agarose); not shown: His-tag, N-terminal, kept
T2 sequence (P10636 other isoform, or with tags, fused parts or gaps): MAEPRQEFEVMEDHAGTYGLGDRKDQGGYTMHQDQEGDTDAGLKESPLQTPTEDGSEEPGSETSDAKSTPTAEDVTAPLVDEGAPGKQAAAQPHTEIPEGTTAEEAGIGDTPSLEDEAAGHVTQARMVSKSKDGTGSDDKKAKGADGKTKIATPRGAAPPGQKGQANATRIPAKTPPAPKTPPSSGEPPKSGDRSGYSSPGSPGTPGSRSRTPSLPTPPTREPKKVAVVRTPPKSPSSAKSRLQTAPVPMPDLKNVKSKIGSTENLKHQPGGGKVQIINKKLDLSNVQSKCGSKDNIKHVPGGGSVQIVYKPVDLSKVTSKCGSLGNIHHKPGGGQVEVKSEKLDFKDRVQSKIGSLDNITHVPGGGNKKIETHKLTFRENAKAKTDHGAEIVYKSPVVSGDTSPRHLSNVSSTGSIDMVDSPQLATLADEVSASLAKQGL

Tau 410 P179A = molecular target: T3, Tau 410 P179A (human, UniProt P10636-5 1-410, P179A); assay: as above
T3 construct: human tau, splice form Tau 410, 410 residues, with P179A; numbers count on: Tau 410; also called Tau P179A; source: E. coli Rosetta(DE3)pLysS, purified (Ni-NTA agarose); not shown: His-tag, N-terminal, kept
T3 sequence (P10636 other isoform, or with tags, fused parts or gaps P179A | P179A | P179A P179A): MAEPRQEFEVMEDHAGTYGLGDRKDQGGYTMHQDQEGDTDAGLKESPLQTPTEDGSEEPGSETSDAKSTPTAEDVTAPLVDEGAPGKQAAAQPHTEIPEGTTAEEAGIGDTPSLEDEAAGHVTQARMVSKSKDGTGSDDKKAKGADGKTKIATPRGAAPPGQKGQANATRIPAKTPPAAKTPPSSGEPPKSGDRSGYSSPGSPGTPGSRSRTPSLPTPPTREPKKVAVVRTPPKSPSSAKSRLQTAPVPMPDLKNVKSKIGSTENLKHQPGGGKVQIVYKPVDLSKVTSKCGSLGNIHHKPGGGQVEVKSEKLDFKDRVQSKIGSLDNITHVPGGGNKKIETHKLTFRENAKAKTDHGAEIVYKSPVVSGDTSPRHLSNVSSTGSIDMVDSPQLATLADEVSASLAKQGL

Tau 410 P216A = molecular target: T4, Tau 410 P216A (human, UniProt P10636-5 1-410, P216A); assay: as above
T4 construct: human tau, splice form Tau 410, 410 residues, with P216A; numbers count on: Tau 410; also called Tau P216A; source: E. coli Rosetta(DE3)pLysS, purified (Ni-NTA agarose); not shown: His-tag, N-terminal, kept
T4 sequence (P10636 other isoform, or with tags, fused parts or gaps P216A | P216A | P216A P216A): as the sequence (P10636 other isoform, or with tags, fused parts or gaps P179A | P179A | P179A P179A) above, with A179P, P216A counted along it

Tau 441 P301S = molecular target: T5, Tau 441 P301S (human, UniProt P10636-8 1-441, P301S); assay: as above
T5 construct: also called Tau P301S; FTLD-linked disease mutant of tau; source: bought: Signal Chem (T08-56GN)
T5 sequence (P10636 other isoform, or with tags, fused parts or gaps P301S | P301S | P301S P301S): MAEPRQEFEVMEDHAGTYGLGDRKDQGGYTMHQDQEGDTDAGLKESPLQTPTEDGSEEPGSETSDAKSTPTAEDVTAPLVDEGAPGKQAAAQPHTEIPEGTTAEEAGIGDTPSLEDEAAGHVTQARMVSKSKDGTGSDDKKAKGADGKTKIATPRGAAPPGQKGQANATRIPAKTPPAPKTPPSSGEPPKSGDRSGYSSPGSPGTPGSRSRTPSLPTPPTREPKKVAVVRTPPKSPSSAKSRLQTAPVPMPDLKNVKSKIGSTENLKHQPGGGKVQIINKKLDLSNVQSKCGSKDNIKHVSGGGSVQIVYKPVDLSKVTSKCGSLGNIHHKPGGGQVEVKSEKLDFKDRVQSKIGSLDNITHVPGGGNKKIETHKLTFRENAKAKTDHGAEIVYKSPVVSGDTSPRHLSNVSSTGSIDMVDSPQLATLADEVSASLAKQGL

[3] = molecular target: B1; assay: NMR titration; 1H-15N HSQC of labelled tau fragments without and with PQBP1(1–94), molar ratio Tau:PQBP1(1–94) 1:5; 0.1–0.5 mM tau, 20 mM sodium phosphate pH 7.0, 20 mM NaCl, 1 mM dithiothreitol, 283 K
Tau(244–341) of Tau 410 = molecular target: T6, Tau(244–341) of Tau 410 (human, UniProt P10636-5 244-341); assay: as above
T6 construct: human tau, splice form Tau 410, residues 244-341 (repeat region); numbers count on: Tau 410; Isotope-labelled (15N); also called the repeat region
T6 sequence (P10636 other isoform, or with tags, fused parts or gaps): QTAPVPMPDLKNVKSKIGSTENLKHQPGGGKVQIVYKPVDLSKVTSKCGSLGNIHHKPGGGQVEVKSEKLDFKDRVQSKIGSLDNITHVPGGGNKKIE

binding result [1] | binding result [2] | binding result (Tau 410 P179A) | binding result (Tau 410 P216A) | binding result (Tau 441 P301S) | binding result [3] | binding result (Tau(244–341) of Tau 410) | Binder
binds | binds | binds | binds | binds | – | – | human PQBP1 full-length form (PQBP1-FL) (natural protein, UniProt O60828 1-265, looked up, also called full-length PQBP1) MPLPVALQTRLAKRGILKHLEPEPEEEIIAEDYDDDPVDYEATRLEGLPPSWYKVFDPSCGLPYYWNADTDLVSWLSPHDPNSVVTKSAKKLRSSNADAEEKLDRSHDKSDRGHDKSDRSHEKLDRGHDKSDRGHDKSDRDRERGYDKVDRERERDRERDRDRGYDKADREEGKERRHHRREELAPYPKSKKAVSRKDEELDPMDPSSYSDAPRGTWSTGLPKRNEAKTGADTTAAGPLFQQRPYPSPGAVLRANAEASRTKQQD
– | – | – | – | – | binds | – | IATPRGAAPPGQKGQANATRIPAKTPPAPKTPPSSGEPPKSGDRSGY (domain or fragment, human, UniProt P10636-5 151-197, looked up, numbers count on: Tau 410; pOPHLT-s has a TEV protease cleavage site after the His-tag and lipoyl domain; Isotope-labelled (15N); also called proline-rich region) [Tau(151–197) of Tau 410]
– | – | – | – | – | binds | – | SSPGSPGTPGSRSRTPSLPTPPTREPKKVAVVRTPPKSPSSAKSRL (domain or fragment, human, UniProt P10636-5 198-243, looked up, human tau, splice form Tau 410, residues 198-243; numbers count on: Tau 410; pOPHLT-s has a TEV protease cleavage site after the His-tag and lipoyl domain; Isotope-labelled (15N); also called proline-rich region) [Tau(198–243) of Tau 410]
binds | binds | – | – | – | – | binds | B1
